US20230125301A1 (published 2023)
Numbering of substitutions follows the chain as printed.

B1: CLDN18H-G12-pdl1a (bispecific antibody)
heavy: not shown
light: DIVMTQSPLSLPVTPGEPASISCKSSQTLLNSGNQKNYLTWYLQKPGQSPQLLIYWASTGESGVPDRFSGSGSGTDFTLKISRVEAEDVGVYYCQNAYFYPFTFGGGTKVEIKRTVAAPSVFIFPPSDEQLKSGTASVVCLLNNFYPREAKVQWKVDNALQSGNSQESVTEQDSKDSTYSLSSTLTLSKADYEKHKVYACEVTHQGLSSPVTKSFNRGEC
B2: CLDN18L-G12-pdl1a (bispecific antibody)
heavy: not shown
light: DIVMTQSPLSLPVTPGEPASISCKSSQTLLNSGNQKNYLTWYLQKPGQSPQLLIYWASTGESGVPDRFSGSGSGTDFTLKISRVEAEDVGVYYCQNAYFYPFTFGGGTKVEIKRTVAAPSVFIFPPSDEQLKSGTASVVCLLNNFYPREAKVQWKVDNALQSGNSQESVTEQDSKDSTYSLSSTLTLSKADYEKHKVYACEVTHQGLSSPVTKSFNRGECGGGGSGGGGSGSEVQLVESGGGLVQPGGSLRLSCAASGRTFVTYGMGWFRQAPGKGREFVSAISWSGSMTSYGDSVKGRFTISRDNAKNTLYLQMNSLRPEDTAVYYCAAALGAVVYTTREPYTYWGQGTLVTVSS
B3: pdl1a-G12-CLDN18L (bispecific antibody)
heavy: not shown
light: EVQLVESGGGLVQPGGSLRLSCAASGRTFVTYGMGWFRQAPGKGREFVSAISWSGSMTSYGDSVKGRFTISRDNAKNTLYLQMNSLRPEDTAVYYCAAALGAVVYTTREPYTYWGQGTLVTVSSGGGGSGGGGSGSDIVMTQSPLSLPVTPGEPASISCKSSQTLLNSGNQKNYLTWYLQKPGQSPQLLIYWASTGESGVPDRFSGSGSGTDFTLKISRVEAEDVGVYYCQNAYFYPFTFGGGTKVEIKRTVAAPSVFIFPPSDEQLKSGTASVVCLLNNFYPREAKVQWKVDNALQSGNSQESVTEQDSKDSTYSLSSTLTLSKADYEKHKVYACEVTHQGLSSPVTKSFNRGEC
B4: CLDN18H-G15-pdl1a (bispecific antibody)
heavy: not shown
light: B1 light
B5: CLDN18H-G9-pdl1a (bispecific antibody)
heavy: not shown
light: B1 light
B6: pdl1a-E-CLDN18H (bispecific antibody)
heavy: not shown
light: B1 light
B7: pdl1a-G15-CLDN18L (bispecific antibody)
heavy: not shown
light: EVQLVESGGGLVQPGGSLRLSCAASGRTFVTYGMGWFRQAPGKGREFVSAISWSGSMTSYGDSVKGRFTISRDNAKNTLYLQMNSLRPEDTAVYYCAAALGAVVYTTREPYTYWGQGTLVTVSSGGGGSGGGGSGGGGSDIVMTQSPLSLPVTPGEPASISCKSSQTLLNSGNQKNYLTWYLQKPGQSPQLLIYWASTGESGVPDRFSGSGSGTDFTLKISRVEAEDVGVYYCQNAYFYPFTFGGGTKVEIKRTVAAPSVFIFPPSDEQLKSGTASVVCLLNNFYPREAKVQWKVDNALQSGNSQESVTEQDSKDSTYSLSSTLTLSKADYEKHKVYACEVTHQGLSSPVTKSFNRGEC
B8: pdl1a-G15-CLDN18H (bispecific antibody)
heavy: not shown
light: B1 light
B9: pdl1a-E-CLDN18L (bispecific antibody)
heavy: not shown
light: EVQLVESGGGLVQPGGSLRLSCAASGRTFVTYGMGWFRQAPGKGREFVSAISWSGSMTSYGDSVKGRFTISRDNAKNTLYLQMNSLRPEDTAVYYCAAALGAVVYTTREPYTYWGQGTLVTVSSEPKSSDKTHTSPPSPDIVMTQSPLSLPVTPGEPASISCKSSQTLLNSGNQKNYLTWYLQKPGQSPQLLIYWASTGESGVPDRFSGSGSGTDFTLKISRVEAEDVGVYYCQNAYFYPFTFGGGTKVEIKRTVAAPSVFIFPPSDEQLKSGTASVVCLLNNFYPREAKVQWKVDNALQSGNSQESVTEQDSKDSTYSLSSTLTLSKADYEKHKVYACEVTHQGLSSPVTKSFNRGEC
B10: CLDN18L-G9-pdl1a (bispecific antibody)
heavy: not shown
light: DIVMTQSPLSLPVTPGEPASISCKSSQTLLNSGNQKNYLTWYLQKPGQSPQLLIYWASTGESGVPDRFSGSGSGTDFTLKISRVEAEDVGVYYCQNAYFYPFTFGGGTKVEIKRTVAAPSVFIFPPSDEQLKSGTASVVCLLNNFYPREAKVQWKVDNALQSGNSQESVTEQDSKDSTYSLSSTLTLSKADYEKHKVYACEVTHQGLSSPVTKSFNRGECGGGGSGGGSEVQLVESGGGLVQPGGSLRLSCAASGRTFVTYGMGWFRQAPGKGREFVSAISWSGSMTSYGDSVKGRFTISRDNAKNTLYLQMNSLRPEDTAVYYCAAALGAVVYTTREPYTYWGQGTLVTVSS
B11: pdl1a-G12-CLDN18H (bispecific antibody)
heavy: not shown
light: B1 light
B12: CLDN18L-G15-pdl1a (bispecific antibody)
heavy: not shown
light: DIVMTQSPLSLPVTPGEPASISCKSSQTLLNSGNQKNYLTWYLQKPGQSPQLLIYWASTGESGVPDRFSGSGSGTDFTLKISRVEAEDVGVYYCQNAYFYPFTFGGGTKVEIKRTVAAPSVFIFPPSDEQLKSGTASVVCLLNNFYPREAKVQWKVDNALQSGNSQESVTEQDSKDSTYSLSSTLTLSKADYEKHKVYACEVTHQGLSSPVTKSFNRGECGGGGSGGGGSGGGGSEVQLVESGGGLVQPGGSLRLSCAASGRTFVTYGMGWFRQAPGKGREFVSAISWSGSMTSYGDSVKGRFTISRDNAKNTLYLQMNSLRPEDTAVYYCAAALGAVVYTTREPYTYWGQGTLVTVSS
B13: CLDN18H-E-pdl1b (bispecific antibody)
heavy: not shown
light: B1 light
B14: CLDN18H-E-pdl1c (bispecific antibody)
heavy: not shown
light: B1 light
B15: CLDN18H-E-pdl1a (bispecific antibody)
heavy: not shown
light: B1 light
B16: CLDN18L-E-pdl1b (bispecific antibody)
heavy: not shown
light: DIVMTQSPLSLPVTPGEPASISCKSSQTLLNSGNQKNYLTWYLQKPGQSPQLLIYWASTGESGVPDRFSGSGSGTDFTLKISRVEAEDVGVYYCQNAYFYPFTFGGGTKVEIKRTVAAPSVFIFPPSDEQLKSGTASVVCLLNNFYPREAKVQWKVDNALQSGNSQESVTEQDSKDSTYSLSSTLTLSKADYEKHKVYACEVTHQGLSSPVTKSFNRGECEPKSSDKTHTSPPSPEVQLVESGGGLVQPGGSLRLSCAASGRTFVTYGMGWFRQAPGKGREFVSAISWSGSSTSYGDSVKGRFTISRDNAKNTLYLQMNSLRPEDTAVYYCAAALGAVVYTTREPYTYWGQGTLVTVSS
B17: CLDN18L-E2-pdl1a (bispecific antibody)
heavy: not shown
light: DIVMTQSPLSLPVTPGEPASISCKSSQTLLNSGNQKNYLTWYLQKPGQSPQLLIYWASTGESGVPDRFSGSGSGTDFTLKISRVEAEDVGVYYCQNAYFYPFTFGGGTKVEIKRTVAAPSVFIFPPSDEQLKSGTASVVCLLNNFYPREAKVQWKVDNALQSGNSQESVTEQDSKDSTYSLSSTLTLSKADYEKHKVYACEVTHQGLSSPVTKSFNRGECERKSSVESPPSPEVQLVESGGGLVQPGGSLRLSCAASGRTFVTYGMGWFRQAPGKGREFVSAISWSGSMTSYGDSVKGRFTISRDNAKNTLYLQMNSLRPEDTAVYYCAAALGAVVYTTREPYTYWGQGTLVTVSS
B18: CLDN18L-Ea-pdl1a (bispecific antibody)
heavy: not shown
light: B16 light with T228G, T230G, S231G, S234G, S292M
B19: CLDN18L-E2a-pdl1a (bispecific antibody)
heavy: not shown
light: B17 light with S225G, S228G, S231G
B20: CLDN18L-E4-pdl1a (bispecific antibody)
heavy: not shown
light: B17 light with R222S, S224Y, S225G, V226P, E227P
B21: CLDN18L-E4a-pdl1a (bispecific antibody)
heavy: not shown
light: B17 light with R222S, S224Y, S225G, V226P, E227P, S228G, S231G

Each binder was assayed against T1, human PD-L1 (human, UniProt Q9NZQ7 19-290) (assay: FACS binding, CHO-K1 cells).
T1 sequence (Q9NZQ7 19-290): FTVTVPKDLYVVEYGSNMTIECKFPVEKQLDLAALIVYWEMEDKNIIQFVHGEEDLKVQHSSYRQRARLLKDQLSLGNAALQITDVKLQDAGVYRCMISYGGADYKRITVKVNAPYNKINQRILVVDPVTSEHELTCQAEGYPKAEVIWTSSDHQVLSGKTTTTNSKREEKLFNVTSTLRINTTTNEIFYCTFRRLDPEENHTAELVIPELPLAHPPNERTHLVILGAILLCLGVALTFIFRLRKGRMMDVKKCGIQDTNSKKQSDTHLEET
Work on B1 yielded an EC50 of 0.281 nM. With B2 the EC50 was 0.808 nM. With B3 the EC50 was 0.0898 nM. Work on B4 yielded an EC50 of 0.219 nM. With B5 the EC50 was 0.111 nM. Work on B6 yielded an EC50 of 0.143 nM. Binder B7 has an EC50 of 0.147 nM. B8 gave an EC50 of 0.134 nM. With B9 the EC50 was 0.107 nM. B10 gave an EC50 of 0.418 nM. For B11, the EC50 was 0.0989 nM. In the case of B12, the EC50 is reported as 0.404 nM.

Biological target: T1, human PD-L1
Experiment: FACS binding, CHO-K1 cells
Remark: another data set of the same source
For B13, the EC50 was 0.296 nM. In the case of B14, the EC50 is reported as 0.317 nM. B15 was tested, and the EC50 was 1.46 nM. Work on B4 yielded an EC50 of 0.525 nM. Work on B16 yielded an EC50 of 0.516 nM. With B6 the EC50 was 0.0745 nM. Binder B9 has an EC50 of 0.131 nM. With B12 the EC50 was 0.456 nM.

Biological target: T1, human PD-L1
Experiment: FACS binding, CHO-K1 cells
Remark: another data set of the same source
For B17, the EC50 was 0.333 nM. In the case of B18, the EC50 is reported as 0.394 nM. Work on B19 yielded an EC50 of 0.439 nM. Work on B10 yielded an EC50 of 0.591 nM. Work on B20 yielded an EC50 of 0.424 nM. Binder B21 has an EC50 of 0.452 nM.
